# Reference: publication PMC11995187, “Specificity landscapes of 40 R2R3‐MYBs reveal how paralogs target different cis‐elements by homodimeric binding”
# T1: AtMYB2 homodimer (Arabidopsis thaliana, UniProt Q39028 1-273)
# T1 sequence: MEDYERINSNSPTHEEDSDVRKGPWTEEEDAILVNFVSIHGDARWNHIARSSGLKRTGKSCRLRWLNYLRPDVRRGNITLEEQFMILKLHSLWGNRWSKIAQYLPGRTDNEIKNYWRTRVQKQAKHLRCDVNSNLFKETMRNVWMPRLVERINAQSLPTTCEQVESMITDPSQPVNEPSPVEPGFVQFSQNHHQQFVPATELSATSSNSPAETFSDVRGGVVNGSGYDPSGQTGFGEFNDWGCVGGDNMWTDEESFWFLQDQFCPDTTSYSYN
# T2: AtMYB2 (Arabidopsis thaliana, UniProt Q39028 1-273)
# T2 sequence: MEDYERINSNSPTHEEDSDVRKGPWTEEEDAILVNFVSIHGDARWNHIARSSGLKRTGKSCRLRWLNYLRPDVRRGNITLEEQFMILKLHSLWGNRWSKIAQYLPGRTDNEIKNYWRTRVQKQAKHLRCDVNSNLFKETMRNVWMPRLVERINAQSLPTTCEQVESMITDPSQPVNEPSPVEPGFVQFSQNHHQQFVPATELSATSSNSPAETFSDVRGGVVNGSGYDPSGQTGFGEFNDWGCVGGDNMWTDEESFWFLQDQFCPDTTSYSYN
# Columns and labels:
# AtMYB2 homodimer = target: T1, AtMYB2 homodimer; experiment: EMSA; 18-48 ng/uL protein; monomer band also seen, dimer band at 36 and 48 ng/uL; EMSA: 10 mM Tris pH 7.5, 50 mM KCl, 10 ng DNA in 20 uL, 25 C, 1 h; 6% native PAGE, 0.5x TBE, 4 C; settings: protein: recombinant; tags: His; chain copies: 2; label: none (gel stain); (annealed oligonucleotides)
# AtMYB2 = target: T2, AtMYB2; experiment: EMSA; 24-48 ng/uL protein; single-molecule shift only, no dimer band; EMSA: 10 mM Tris pH 7.5, 50 mM KCl, 10 ng DNA in 20 uL, 25 C, 1 h; 6% native PAGE, 0.5x TBE, 4 C; settings: protein: recombinant; tags: His; label: none (gel stain); (annealed oligonucleotides)
Binder,binding result (AtMYB2 homodimer),binding result (AtMYB2)
ER1a (dsDNA) DNA 1: GATCCAATTGGTTTGGTCACCGATTTAACCTCATCAATGCCA DNA 2: TGGCATTGATGAGGTTAAATCGGTGACCAAACCAATTGGATC,binds,–
Ma (dsDNA) DNA 1: GATCCAATTGACCACTACGTTAGGTAATGGACATCAATGCCA DNA 2: TGGCATTGATGTCCATTACCTAACGTAGTGGTCAATTGGATC,–,binds
ER8 (dsDNA) DNA 1: GATCCAATTGGTTAGGTCGATCTCAACCTAACATCAATGCCA DNA 2: TGGCATTGATGTTAGGTTGAGATCGACCTAACCAATTGGATC,binds,–
